In the RNAGym collection of RNA variant scans (doi:10.1073/pnas.2313332121):

B1: TPR t1 (parent)
chain: GACCAAUCUGCCCUCAGAGCUCGAGAACAUCUUCGGAUGCAGAGGAGGCAGGCUUCGGUGGCGCGAUAGCGCCAACGUCCUCAACCUCCAAUGCAUCCCACCACAUGAUGAUGCCUGAAGAGCCUUGGUUUUUUG

Variants of: B1
Experiment: polymerase ribozyme fitness, log enrichment relative to wild type (log ratio); higher = more active; in vitro selection for triplet polymerase activity
Procedure, shortened: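 Input and output libraries were sequenced on Illumina after a single in vitro selection round, run in triplicate on PCR-built, transcribed mutant libraries of each subunit of a heterodimeric triplet polymerase ribozyme. Selection annealed libraries to a biotinylated primer, the partner subunit and triplets, incubated them frozen at −7 °C, then gel-excised extended constructs for streptavidin-bead capture and RT-PCR. Genotypes with ≥10 input reads and ≥1 read per output were kept. Fitness is the logarithm, taken in base 2, of genotype enrichment divided by wild-type enrichment, using inverse-variance-weighted replicate averages.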

| Variant | polymerase ribozyme fitness (log ratio) |
| --- | --- |
| G61U U81G | -2.74 |
| C62A G69U | -3.2 |
| C62G G71U C97A A119G | -4.38 |
| C62A U112C | 0.245 |
| C62A U112A | -0.111 |
| C62A U131C | -0.63 |
| G61U U87G | 0.809 |
| C62G A111C | -1.87 |
| C62G G113U | -4.24 |
| C62A C94A | -2.2 |
| C62G U96A C123U | -3.13 |
| C62A U96A U112C | -0.2 |
| G61U U96G | -0.881 |
| C62A G113A | -2.02 |
| C62G G128A | -2.8 |
| C62A A75G G93A | -2.34 |
| C62G G135U | -2.31 |
| C62A A121C | 0.464 |
| C62G C70A C85A C98U C124U | -6.66 |
| C62A U109G | -6.74 |
| C62A U109C | -4.04 |

| Variant | polymerase ribozyme fitness (log ratio) |
| --- | --- |
| C62A C86A C98U | -3.12 |
| C62U C76G U78A | -0.661 |
| C62A C123U | 0.181 |
| C62A C123G | 0.748 |
| C62A C123A | -0.607 |
| C62U C80G C124G | -5.66 |
| G61U U81C C82U A121C | 0.807 |
| C62A A119C C123U | -2.98 |
| C62G C88U | -1.37 |
| C62G A100U G120U | -3.32 |
| G61U U132A | 0.196 |
| C62A G117C A118C U131C | -5.12 |
| C62G U126C | -2.05 |
| C62G C85A C102U A121U C124U | -4.13 |
| G61U U78A G128C | -2.72 |
| C62A C104A G113A | -4.4 |
| G61U U78C A83U | -0.564 |
| C62G C115U | -2.93 |
| C62U C73U U112G | 0.712 |
| C62A A83U U92A U116C | -5.36 |
| C62A G77U U78A A119U G128C | -5.16 |

| Variant | polymerase ribozyme fitness (log ratio) |
| --- | --- |
| C62G A90G C97U A111C | -1.19 |
| C62A U106A | -1.37 |
| C62U A90C G135U | -2.45 |
| C62A U81C C82A C98U | -4.18 |
| G61U U112A | 1.27 |
| C62U C64U C102A U126G | -4.31 |
| C62A A118U | -1.56 |
| C62A G117U | -3.38 |
| C62A G117A | -2.71 |
| C62A A105C | -3.71 |
| C62A A105U | -3.07 |
| C62A C124U | 1.51 |
| C62A C124A | 1.01 |
| G61U U106G A108U | -4.45 |
| C62A C70U C86A | -4.26 |
| C62A A74G | -5.22 |
| C62G G110A | -3.33 |
| C62G G110U | -2.94 |
| C62A C64U C114A A121U C123G | -4.48 |
| G61U U109C | -2.41 |
| C62A A66U C73U A95C C123U | -5.94 |

| Variant | polymerase ribozyme fitness (log ratio) |
| --- | --- |
| C62A U87A U92A U116C | -6.88 |
| C62G C88G A91U U112A | -5.1 |
| C62A C85U A121G | 0.356 |
| C62G U106G | -4.29 |
| G61U U130C | 0.445 |
| G61U U131A | -0.736 |
| C62U A74U G128C | -3 |
| C62G U78G | -2.88 |
| C62U C76U G127A | -2.58 |
| C62U A95U A105U | -3.17 |
| C62A U130C | -1.71 |
| C62U C80A A84C | -3.26 |
| G61U U116C U130G | -0.407 |
| C62G C114U U116A | -5.69 |
| C62G U78C C79G A111G | -3.51 |
| C62A U87A | -1.8 |
| C62G C73U A74U U109G C124A | -6.92 |
| C62A U78C U112A U116A | -3.11 |
| C62A C73A | -2.4 |
| C62G G69U | -5.17 |
